From patent US20150284436A1 (published 2015)
One block for each binder: values may come before it.

Assays:
[1] = target: T1, N-TXNIP (N-terminal domain of TXNIP, residues 3-156) (human, UniProt Q9H3M7 3-156); experiment: 1H-15N HSQC NMR
T1 construct: The NMR sample was 15N-labeled and its hexahistidine-tag was removed by rTEV; In the Ni-NTA co-purification it carried the N-terminal hexahistidine-tag; also called N-terminal TXNIP; ^15N-labeled N-TXNIP
T1 chain: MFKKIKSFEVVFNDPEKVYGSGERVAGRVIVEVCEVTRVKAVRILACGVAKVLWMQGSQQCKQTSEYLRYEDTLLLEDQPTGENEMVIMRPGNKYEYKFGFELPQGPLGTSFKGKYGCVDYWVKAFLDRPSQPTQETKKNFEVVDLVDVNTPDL
Experimental: NMR interaction experiments were carried out by recording ¹H-¹⁵N NMR HSQC spectra of ¹⁵N-labeled N-TXNIP upon addition of unlabeled TRX or its mutant, which was reduced with 5 mM DTT and dialyzed against 50 mM potassium phosphate (pH 6.6) prior to the interaction study to remove excess DTT.
The ¹H-¹⁵N HSQC spectra of all proteins were measured on a Bruker 900 MHz NMR spectrometer at the Korea Basic Science Institute (Ochang, Korea). The NMR measurements were performed using 0.3 mM ¹⁵N-labeled protein in 50 mM potassium phosphate (pH 6.6) containing 10% D₂O at 25° C. All NMR spectra were processed with Topspin 2.1 and analyzed with the program SPARKY 3.1.
Further, TRX muteins were added and ¹H-¹⁵N HSQC spectra of ¹⁵N-labeled N-TXNIP were monitored to examine interaction between N-TXNIP and TRX. […] In contrast, C62A, C69A, and C73A mutants caused a chemical shift similar to the wild-type TRX (FIG. 12).

[2] = target: T2, FLAG-tagged TXNIP with Cys63 substituted with serine (human, UniProt Q9H3M7 1-391); experiment: GST pull-down / co-IP from 293T lysates, Western blot
T2 chain: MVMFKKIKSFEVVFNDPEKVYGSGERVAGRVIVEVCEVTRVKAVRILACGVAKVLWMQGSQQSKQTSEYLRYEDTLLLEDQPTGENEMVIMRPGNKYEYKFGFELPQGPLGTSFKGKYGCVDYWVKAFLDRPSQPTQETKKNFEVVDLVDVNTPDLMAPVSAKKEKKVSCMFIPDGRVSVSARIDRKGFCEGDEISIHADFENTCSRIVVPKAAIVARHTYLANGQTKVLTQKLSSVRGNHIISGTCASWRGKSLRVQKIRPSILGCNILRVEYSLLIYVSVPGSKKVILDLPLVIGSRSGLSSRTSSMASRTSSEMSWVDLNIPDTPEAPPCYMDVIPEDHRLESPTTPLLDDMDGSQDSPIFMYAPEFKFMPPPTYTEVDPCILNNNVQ
Experimental: (§1) Coimmunoprecipitation assays were performed using lysates from 293T cells transfected with combinations of FLAG-tagged or HA-tagged TXNIP plasmids and GST-tagged or FLAG-tagged TXNIP plasmids. Immobilized proteins on FLAG-agarose beads or glutathione beads were visualized by Western blot analysis using anti-HA, anti-FLAG, or anti-GST antibodies. One percent of WCL was used as the input;
(§2) To test the in vivo interprotomer interaction between TXNIP molecules, HEK 293T cells were transfected with plasmids expressing HA-tagged-TXNIP and FLAG-tagged T-TXNIP. 24 hours later, the cells were harvested and lysed in the 50 mM iodoacetamide-containing buffer [0.5% Triton X-100, 150 mM NaCl, 10% glycerol, 1 mM NaF, 1 mM AEBSF, 2 μg/mL leupeptin, 5 μg/mL aprotinin and 20 mM HEPES (pH 7.2)]. After centrifugation at 16,000 rpm for 20 minutes, the supernatant was incubated with anti-FLAG M2 agarose (Sigma) at 4° C. for 12 hours. The immobilized proteins were collected by centrifugation and washed three times with the lysis buffer. The bound proteins were subjected to SDS-PAGE under reduced and non-reduced conditions. […] 24 hours later, the cells were harvested and lysed in the lysis buffer. […]

[3] = target: T3, FLAG-tagged TXNIP with Cys247 substituted with serine (human, UniProt Q9H3M7 1-391); experiment: as above
T3 chain: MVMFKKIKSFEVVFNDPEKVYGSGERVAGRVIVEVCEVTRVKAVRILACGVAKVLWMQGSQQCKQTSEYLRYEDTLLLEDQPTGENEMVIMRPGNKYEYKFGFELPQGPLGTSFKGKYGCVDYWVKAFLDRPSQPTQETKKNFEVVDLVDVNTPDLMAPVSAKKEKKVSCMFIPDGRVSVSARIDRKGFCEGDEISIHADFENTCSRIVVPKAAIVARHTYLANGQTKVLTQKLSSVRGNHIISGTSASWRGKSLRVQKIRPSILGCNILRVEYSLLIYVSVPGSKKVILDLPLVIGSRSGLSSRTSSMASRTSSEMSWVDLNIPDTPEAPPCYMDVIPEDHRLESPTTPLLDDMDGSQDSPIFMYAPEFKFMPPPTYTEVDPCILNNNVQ
Experimental: as §1, §2

[4] = target: the molecule itself; experiment: non-reducing SDS-PAGE after air oxidation
Experimental: TRX(C73)-T-TXNIP(C36S/C49S/C120S/C170S/C205S/C267S) complex was incubated with 100 mM DTT and subjected to size exclusion chromatography to isolate T-TXNIP(C36S/C49S/C120S/C170S/C205S/C267S) from remained protein complex and TRX. The fractions containing T-TXNIP(C36S/C49S/C120S/C170S/C205S/C267S) were collected and dialyzed against 50 mM Tris-HCl (pH 8.0), 500 mM NaCl and 10% glycerol to induce the formation of disulfide bonds between TXNIP molecules;
For analysis by mass spectrometry in vitro, purified TRX(C73A)-T-TXNIP(C36S/C49S/C120S/C170S/C205S/C267S) complex was incubated with 100 mM DTT for 1 hour at room temperature and injected to the Superdex™ 200 10/300 GL gel filtration column installed on an AKTA purifier FPLC system to obtain T-TXNIP(C36S/C49S/C120S/C170S/C205S/C267S) from remained protein complex and TRX(C73 Å). The fractions containing T-TXNIP(C36S/C49S/C120S/C170S/C205S/C267S) were dialyzed against 50 mM Tris-HCl (pH 8.0), 500 mM NaCl and 10% glycerol to induce the formation of disulfide bonds between TXNIP molecules through air oxidation. Dialyzed proteins were then subjected to SDS-PAGE under non-reducing conditions.

[5] = target: T4, TRX(C73A), tag-free, co-expressed in complex (human, UniProt P10599 1-105); experiment: purified co-expressed complex, gel filtration before and after ROS treatment
T4 construct: Used in complex with T-TXNIP(C36S/C49S/C120S/C170S/C205S/C267S) to avoid TRX dimerization
T4 chain: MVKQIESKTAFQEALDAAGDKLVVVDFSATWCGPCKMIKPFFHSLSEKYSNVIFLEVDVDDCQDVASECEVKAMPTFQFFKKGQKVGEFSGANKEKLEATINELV
Experimental: In detail, the TRX-T-TXNIP(C120S/C170S/C205S/C267S) complex was incubated with H₂O₂ at 37° C. for 30 minutes (a). The TRX(C73A)-T-TXNIP(C36S/C49S/C120S/C170S/C205S/C267S) complex was incubated with diamide at 37° C. for 30 minutes. The reaction products were injected onto a HiLoad™ 16/60 Superdex™ 75 gel filtration column at room temperature (b). The TRX Cys35 residue is essential for dissociation between TRX and TXNIP. The TRX(C35A)-T-TXNIP(C120S/C170S/C205S/C267S) complex was incubated with diamide at 37° C. for 60 minutes and the reaction products were injected onto the Superdex™ 75 10/300 GL gel filtration column (c). Eluted T-TXNIP and TRX after the ROS treatments are indicated for each reaction. All eluted proteins were analyzed by SDS-PAGE;
The TRX and T-TXNIP(C120S/C170S/C205S/C267S) complex was used to circumvent non-functional cysteine-induced aggregation. The complex (at a concentration of 0.05 mM) was incubated with H₂O₂ at concentrations in the range of 0 to 10 mM in 50 mM Tris-HCl (pH 8.0), 500 mM NaCl, and 10% glycerol at 37° C. The TRX([…]) and T-TXNIP(C36S/C49S/C120S/C170S/C205S/C267S) complex was also used to avoid TRX dimerization and non-functional cysteine-induced aggregation. This complex was incubated with 0 to 3 mM diamide in 50 mM Tris-HCl (pH 8.0), 500 mM NaCl, and 10% glycerol at 37° C. […]

binding result [1]: no binding
B1: TRX C32A mutant (NMR sample) (enzyme)
chain: MVKQIESKTAFQEALDAAGDKLVVVDFSATWAGPCKMIKPFFHSLSEKYSNVIFLEVDVDDCQDVASECEVKCMPTFQFFKKGQKVGEFSGANKEKLEATINELV
notes: not shown: C-terminal hexahistidine-tag from pET21 vector

binding result [2]: no binding
B2: GST-fused TXNIP with Cys63 substituted with serine (other)
chain: MVMFKKIKSFEVVFNDPEKVYGSGERVAGRVIVEVCEVTRVKAVRILACGVAKVLWMQGSQQSKQTSEYLRYEDTLLLEDQPTGENEMVIMRPGNKYEYKFGFELPQGPLGTSFKGKYGCVDYWVKAFLDRPSQPTQETKKNFEVVDLVDVNTPDLMAPVSAKKEKKVSCMFIPDGRVSVSARIDRKGFCEGDEISIHADFENTCSRIVVPKAAIVARHTYLANGQTKVLTQKLSSVRGNHIISGTCASWRGKSLRVQKIRPSILGCNILRVEYSLLIYVSVPGSKKVILDLPLVIGSRSGLSSRTSSMASRTSSEMSWVDLNIPDTPEAPPCYMDVIPEDHRLESPTTPLLDDMDGSQDSPIFMYAPEFKFMPPPTYTEVDPCILNNNVQ

binding result [3]: no binding
B3: GST-fused TXNIP with Cys247 substituted with serine (other)
chain: MVMFKKIKSFEVVFNDPEKVYGSGERVAGRVIVEVCEVTRVKAVRILACGVAKVLWMQGSQQCKQTSEYLRYEDTLLLEDQPTGENEMVIMRPGNKYEYKFGFELPQGPLGTSFKGKYGCVDYWVKAFLDRPSQPTQETKKNFEVVDLVDVNTPDLMAPVSAKKEKKVSCMFIPDGRVSVSARIDRKGFCEGDEISIHADFENTCSRIVVPKAAIVARHTYLANGQTKVLTQKLSSVRGNHIISGTSASWRGKSLRVQKIRPSILGCNILRVEYSLLIYVSVPGSKKVILDLPLVIGSRSGLSSRTSSMASRTSSEMSWVDLNIPDTPEAPPCYMDVIPEDHRLESPTTPLLDDMDGSQDSPIFMYAPEFKFMPPPTYTEVDPCILNNNVQ

binding result [5]: binds
B4: T-TXNIP(C36S/C49S/C120S/C170S/C205S/C267S) (other)
chain: MFKKIKSFEVVFNDPEKVYGSGERVAGRVIVEVSEVTRVKAVRILASGVAKVLWMQGSQQCKQTSEYLRYEDTLLLEDQPTGENEMVIMRPGNKYEYKFGFELPQGPLGTSFKGKYGSVDYWVKAFLDRPSQPTQETKKNFEVVDLVDVNTPDLMAPVSAKKEKKVSSMFIPDGRVSVSARIDRKGFCEGDEISIHADFENTSSRIVVPKAAIVARHTYLANGQTKVLTQKLSSVRGNHIISGTCASWRGKSLRVQKIRPSILGSNILRVEYSLLIYVSVPGSKKVILDLPLVIGSRSGLSSRTSSMASRTSSEM
notes: 1 residues 3-317 (T-TXNIP) with the six printed substitutions; also called monomeric T-TXNIP mutant
binding result [4]: binds
